Source: IntAct's records for PubMed 12163175

B1: Protein ROG3 (Saccharomyces cerevisiae), P43602 (parent)
chain: MGFSSGKSTKKKPLLFDIRLKNVDNDVILLKGPPNEAPSVLLSGCIVLSINEPMQIKSISLRLYGKIQIDVPLERPQDASSSSLSSSPPKIRKYNKVFYNYAWDNVNLKEYLSGLRGQSGLAGSSSSSNILGTRQRAQSTSSLKSLKGSSSPSSCTLDKGNYDFPFSAILPGSLPESVESLPNCFVTYSMESVIERSKNYSDLICRKNIRVLRTISPAAVELSETVCVDNSWPDKVDYSISVPNKAVAIGSATPINISIVPLSKGLKLGSIKVVLFENYQYCDPFPPVISENRQVTELNLEDPLNESSGEFNGNGCFVNNPFFQPDHSFQDKWEIDTILQIPNSLSNCVQDCDVRSNIKVRHKLKFFIILINPDGHKSELRASLPIQLFISPFVALSIKPLSSSNLYSLFSTTNQKDENSSQEEEEEYLFSRSASVTGLELLADMRSGGSVPTISDLMTPPNYEMHVYDRLYSGSFTRTAVETSGTCTPLGSECSTVEDQQQDLEDLRIRLTKIRNQRDNLGLPPSASSAAASRSLSPLLNVPAPEDGTERILPQSALGPNSGSVPGVHSNVSPVLLSRSPAPSVSAHEVLPVPSGLNYPETQNLNKVPSYGKAMKYDIIGEDLPPSYPCAIQNVQPRKPSRVHSRNSSTTLSSSIPTSFHSSSFMSSTASPISIINGSRSSSSGVSLNTLNELTSKTSNNPSSNSMKRSPTRRRATSLAGFMGGFLSKGNKR
B2: Protein ROD1 (Saccharomyces cerevisiae), Q02805 (parent)
chain: MFSSSSRPSKEPLLFDIRLRNLDNDVLLIKGPPDEASSVLLSGTIVLSITEPIQIKSLALRLFGRLRLNIPTVLQTVHGPHKRYSKFERNIYSHFWDDFNIKSYFQNLYDNHNNGKITISSKSSTNLAALPKRKRALSTASLISSNGQTSASKNYHTLVKGNYEFPFSAIIPGSLVESVEGLPNAAVTYALEATIERPKQPDLICKKHLRVIRTLAIDAVELSETVSVDNSWPEKVDYTISIPTKAIAIGSSTMINILIVPILKGLKLGPVRISLVENSQYCGSYGGVINQERMVAKLKLKDPLKHVAQIKKKRSLNEAADEGVDTDTGEFQDKWEVRALLNIPASLTKCSQDCRILSNIKVRHKIKFTISLLNPDGHISELRAALPVQLFISPFVPVNVKTSDVIERTLKTFGPSYQVTSQHDNSFSSKNFVDDSEEDVIFQRSASALQLSSMPTIVSGSTLNINSTDAEATAVADTTMVTSLMVPPNYGNHVYDRVYGEVTNEDETSASASSSAVESQAIHNIQNLYISDSNNSNNPILAPNPQIKIEDDSLNNCDSRGDSVNNSNLNLVNSNLTISENWNNNSPSANRYNNIINAGLNSPSLTPSFAHLSRRNSYSRQTSSTSLKNDLELTDLSRVPSYDKAMKSDMIGEDLPPAYPEEELGVQENKKIELERPQILHHKSTSSLLPLPGSSKSSNNLKRSSSRTHLSHSPLPRNNSGSSVSLQQLARNNTDSSFNLNLSFTSAKSSTGSRHFPFNMTTSFTSNSSSKNNSHFDKTDSTSDANKPREEENYTSATHNRRSRSSSVRSNNSNSPLRQGTGSFANLMEMFTKRDRS

Variants of: B1
Conditions: with rsp5_yeast RSP5, P39940
Target sequence in this assay (P39940 whole entry): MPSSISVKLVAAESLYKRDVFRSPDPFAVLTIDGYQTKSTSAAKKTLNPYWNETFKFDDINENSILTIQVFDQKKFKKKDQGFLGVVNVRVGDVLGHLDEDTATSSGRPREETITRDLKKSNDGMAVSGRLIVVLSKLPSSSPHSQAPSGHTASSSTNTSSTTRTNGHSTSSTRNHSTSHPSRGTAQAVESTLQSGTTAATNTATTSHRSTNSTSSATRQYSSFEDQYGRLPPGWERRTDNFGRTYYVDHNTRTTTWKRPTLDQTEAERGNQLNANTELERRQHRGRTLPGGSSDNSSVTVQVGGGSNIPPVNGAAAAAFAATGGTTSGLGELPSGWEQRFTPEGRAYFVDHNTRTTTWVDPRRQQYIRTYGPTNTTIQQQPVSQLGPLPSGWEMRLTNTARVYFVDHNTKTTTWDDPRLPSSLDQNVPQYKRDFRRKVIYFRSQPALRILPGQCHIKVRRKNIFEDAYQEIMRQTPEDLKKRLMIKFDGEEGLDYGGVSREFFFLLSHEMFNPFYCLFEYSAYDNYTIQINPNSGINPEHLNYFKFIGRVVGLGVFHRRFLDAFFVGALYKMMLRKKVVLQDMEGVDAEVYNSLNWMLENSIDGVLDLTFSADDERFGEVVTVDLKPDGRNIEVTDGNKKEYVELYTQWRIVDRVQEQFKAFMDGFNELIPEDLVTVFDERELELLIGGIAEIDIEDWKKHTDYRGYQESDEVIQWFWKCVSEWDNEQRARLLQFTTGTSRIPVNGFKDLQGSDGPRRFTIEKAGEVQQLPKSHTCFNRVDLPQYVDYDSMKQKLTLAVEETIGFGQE

Variant	effect of a mutation on the interaction
C487Q;T488A	disrupting interaction

Variants of: B2
Conditions: with rsp5_yeast RSP5, P39940
Target sequence in this assay (P39940 whole entry): as above

Variant	effect of a mutation on the interaction
P487Q;P488A	disrupting interaction
